Data from paper PMC2430192, “Identification of immune genes and proteins involved in the response of bovine mammary tissue to Staphylococcus aureus infection” (BMC Veterinary Research, 2008).
Where “and” joins values, the source holds several entries; their conditions need not be identical. Equal entries are not always repeated.

B1: S100 calcium-binding protein A12 (S100A12), endogenous in bovine milk whey (natural protein, bovine (endogenous in milk whey), UniProt P79105 1-92, looked up)
chain: MTKLEDHLEGIINIFHQYSVRVGHFDTLNKRELKQLITKELPKTLQNTKDQPTIDKIFQDLDADKDGAVSFEEFVVLVSRVLKTAHIDIHKE
notes: 92 amino acids, predicted size 10.7 kDa; also called calgranulin C; source: endogenous, milk whey from udder quarters infected with S. aureus
B2: Recombinant bovine PTX3 (rtnPTX3) produced in Trichoplusia ni insect cells (natural protein, UniProt Q0VCG9 18-382, looked up)
chain: ENSDDYELMYVNLDNEIDNGLHPTEDPTPCDCSRENSEWDKLFTMLENSQMREGMLLQATDVMLRGELQKLQAELGRLEGSLQKLCGPEAPSETRLARALDDLLQASRDAGRRLARLEDAGALRPQEEAGRALGAVLEELRRTRADLRAVQGWAASRWLPAGCETAILFPMRSKKIFASVHPVTPMKLETFSACIWVKATEVLNKTVLFSYGTKRNPYEIQLYLSYRSIMLVVGGEENRLVADAVISLGTWTHLCSTWDSKKGHMALWVNGDSVATAVDMATGHVVPEGGILQIGQEKNGCCVGGGFDETLAFSGRLTGFNIWEGVLSNEEIREAGGAESCHIRGNVVGWGVTEIQPHGGAQYVY
notes: predicted size of the mature protein 40.2 kDa; The vector pIEx5 supplies the signal peptide of adipokinetic hormone for secretion; A few vector-derived residues at the N-terminus cannot be excluded; Two bands of 43 and 45 kDa, possibly differing in glycosylation at N221; also called Pentraxin-3; source: Trichoplusia ni (High Five) insect cells, transiently transfected with pIEX5-PTX3, secreted …
B3: Pentraxin-3 (PTX3), endogenous in bovine milk whey (natural protein, bovine (endogenous in milk whey), UniProt Q0VCG9 18-382, looked up)
chain: B2 chain
notes: Pentraxin-3 (PTX3), bovine, secreted into milk; predicted Mw of the mature protein 40.2 kDa; one potential N-linked glycosylation site (Asn221); source: endogenous, milk whey from udder quarters infected with S. aureus

Key:
[1] = biological target: the molecule itself; assay: SDS-PAGE and immunoblot; 25 μl of milk whey from infected udder quarters, run under reducing conditions; detected with immunoaffinity-purified antibodies raised to rS100A12 or rPTX3
[2] = biological target: T1, human C1q (human, UniProt P02745 23-245; P02746 28-253; P02747 29-245); assay: ELISA; 500 ng human C1q coated on 96-well plates in PBS pH 7.4 with 1 mM CaCl2 and 1 mM MgCl2; rtnPTX3 (12.5 ng/well, two preparations) added in PBS-Tween 20, 1 h at 37°C; bound rtnPTX3 detected with rabbit antibody raised to rPTX3; details: both partners purified
T1 construct: Complement C1q subcomponent subunit A, human; Complement C1q subcomponent subunit B, human; Complement C1q subcomponent subunit C, human; also called C1q component of the human complement system; source: bought: Merck; copies: + +

[3] = biological target: the molecule itself; assay: SEC; gel permeation chromatography of purified rtnPTX3 in solution; result not shown
[4] = biological target: the molecule itself; assay: SDS-PAGE and immunoblot; culture supernatant of transfected Trichoplusia ni cells, reducing conditions; results not shown

T1 sequence (P02745 23-245, chain 1 of 3): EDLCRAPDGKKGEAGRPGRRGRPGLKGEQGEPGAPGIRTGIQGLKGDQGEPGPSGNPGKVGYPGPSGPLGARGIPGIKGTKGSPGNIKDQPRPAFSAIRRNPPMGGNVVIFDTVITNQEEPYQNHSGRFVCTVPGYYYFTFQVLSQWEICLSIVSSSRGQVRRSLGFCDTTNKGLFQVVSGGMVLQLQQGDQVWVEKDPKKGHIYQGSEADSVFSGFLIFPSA
T1 sequence (P02746 28-253, chain 2 of 3): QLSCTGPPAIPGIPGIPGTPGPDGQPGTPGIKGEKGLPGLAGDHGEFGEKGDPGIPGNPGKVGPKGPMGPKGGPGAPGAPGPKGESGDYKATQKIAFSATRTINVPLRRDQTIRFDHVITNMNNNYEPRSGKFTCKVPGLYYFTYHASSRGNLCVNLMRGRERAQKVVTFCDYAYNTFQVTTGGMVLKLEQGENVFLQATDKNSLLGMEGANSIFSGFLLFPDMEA
T1 sequence (P02747 29-245, chain 3 of 3): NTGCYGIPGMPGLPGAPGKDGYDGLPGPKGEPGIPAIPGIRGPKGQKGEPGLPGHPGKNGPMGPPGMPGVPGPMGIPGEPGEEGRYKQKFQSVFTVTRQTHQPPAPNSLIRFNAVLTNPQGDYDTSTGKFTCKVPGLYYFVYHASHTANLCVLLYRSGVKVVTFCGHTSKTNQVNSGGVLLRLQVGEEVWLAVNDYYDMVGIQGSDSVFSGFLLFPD

Binder	stoichiometry N [1]	binding result [2]	stoichiometry N [3]	stoichiometry N [4]
B1	2 and 3			
B2		binds	10	2
B3	2			
